# The supplement of paper PMC9170038
# System: MS2 coat protein
# Assay: apparent KD of MS2 coat protein; higher = weaker reporter binding
# Conditions: Eterna round: R107; input ligand: arginine 13.2 mM
# Experimental: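 RNA-MaP round R107: designed RNA switches with theophylline, tryptophan, arginine or FMN aptamers are transcribed on-chip within common flanks. They are titrated with SNAP-549-labelled MS2 coat protein in RNA-MaP buffer (100 mM Tris pH 7.5, 80 mM KCl, 4 mM MgCl2), without ligand or with the indicated ligand. Median apparent KD per design.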
row,Sequence,apparent KD of MS2 coat protein [nM]
1,AACAUGAGGAUCACCCAUGUUUUAUGGGAUACCAGAGACGAAAGUCUCCCUUGGCAGCCCAAGCUGCUCCAUACGAAAGUAUGGU [Theophylline A 17],16
2,GGAUAGAUAGGAGAUACCAGAUACAUAAACAUGAGGAUCACCCAUGUGUCUGCACUAAGUAUCCCUUGGCAGCUCGGAGAUCUGA [#17 Same State - Theophylline B],17.4
3,CAUAUAUAUUGAAGGAGCGUCGAAAAUGGGUAAACAUGAGGAUCACCCAUGUAAAGGGAACGACAGGUAGGUCGCAAUAUAUAUG [AstromonsSSArgB#4],115
4,AAACAUGAGGAUCACCCAUGUAUGUUAUUACGAGGACCGGUACGGCCGCCACUCGAUAGAGUAGAAGUAAAUUGUAAUUCAUGUU [JR_ExcTryptoA_Sub017],19.3
5,GACCGGUUAUAGUGCGAUUGUCUUGUGGAAGGAGCGCAGAGGACUGCAGGUAGGUCGCCACAUGAGGAUCACCCAUGUCAGGAUA [Tirevete],33.8
6,AUUCAUGGAAACAUGACAUAGGGAUCACUCCGAGGACCGGUACGGCCGCCACUCGCGAGGAGGCACAUGAGGAUCACCCAUGUUA [SS Tryp A #4],27
7,UAUCCACAUGAGGAUCACCCAUGUAGGGAAGGAGCGGUGGUUUCACCAGGUAGGUCGCCUUACUGAGGAGAACCGGUGGAAUCGU [Exclusion - Arginine A (Freestyle 29)],23.8
8,GUAAUUAUAAGAAGGAGCGUCGAAAAUGGGUAAACAUGAGGAUCACCCAUGUAAAGGGAACGACAGGUAGGUCGCUUAUGGUUAC [AstromonsSSArgB#24],99.2
9,UCGGGUUUGCGAAGGAGCGGGUAUGUUUUCUAGUGGAUCCUAACAUGAGGAUCACCCAUGUCCCAGGUAGGUCGCGCGGGUUUGG [12.W],183
10,UAUCCACAUGAGGAUCACCCAUGUUAGGAAGGAGCGGUGAAUGCACCAGGUAGGUCGCCUAGCUGAGGACUGUCGAUGGAUUCGU [Exclusion - Arginine A (Freestyle 18)],23.3
11,GGACUAACCAGAAGGAGCGGCACGCAGAAACUGCAAAUUCCUCCGCACGAGGAUCACCCGUGUCAGGUAGGUCGCUGGUUAGUCG [ArgBX 28],20.8
12,CGGUGUAGGGUUAAUAGGCUGAGUACAGAAGGAGCGCGAAUAAACGCAGGUAGGUCGCUGGCGAACAUGAGGAUCACCCAUGUAU [Same State Arginine A GF 30],29.5
13,AAGACGGUCGGAAGGAGCGGUACAUGAGGAUCACCCAUGUACUCCUGGGCAUCCGUAGUGUGCCAGGUAGGUCGCCGAUUGCGGG [XArg-B14],12.8
14,AGAAUGUAAUAUGGCAAAGUUAUAACCGAAGGAGCGCCGAAUAAGGCAGGUAGGUCGCGGAAACAUGAGGAUCACCCAUGUCCAU [Arginine A Same State; Euphoria Solution 3],18.1
15,AAACAUGAGGAUCACCCAUGUGGAACCGAAGGAGCGGCGCACAUGCCAGGUAGGUCGCGGGACAUGAGGACAUGAGGAUCACCCA [Same State Arginine A 3],45.1
16,AAUUCCUCACAUGAGGAUCACCCAUGUGAAGGAGCGCCGAAUAAGGCAGGUAGGUCGCACAUGGAAACCGCUACGAAAGUAGCAA,13.1
17,AAAGAUCGGAAACGAUCGGCGGCUUGGGCGCGAGGACCGGUACGGCCGCCACUCGGGAAACAUGAGGAUCACCCAUGUUGCUAGC [ETA NP+V+V2 #15],12.3
18,ACGACAUGAGGAUCACCCAUGUAAGGUGAUACCAGACGAAGUAAUGUCCCUUGGCAGCACACGCAUAGUUGCGAUUAUUGUACGA [JR_SSTheophyA_Sub007],83.7
19,AAGUAAACAUGAGCAAAGCUCAUGUGCGAAGGAGCGGCGGAAACGCCAGGUAGGUCGCGCACAUGAGCAUCAGCCAUGUGUGUCA [Omei Arginine B SS A v1],11.2

row,Sequence,apparent KD of MS2 coat protein [nM]
1,UCCAUCGGCGGAAGCCGAUGGUUUACAGAAGGAGCGUGGAUUAACACAGGUAGGUCGCUGGACAUGAGGAUCACCCAUGUGAUAG [SSAA #6],40.1
2,AUACGGCGGUAAAAUCAGAGAGUAAAAGAUACCAGCAAUAAUAAAUGCCCUUGGCAGCUUCUGACAUGAGGAUCACCCAUGUAAA [theeternabot_exclusion_MS2_Theo_A_49],15.7
3,UGACAUUGCUCAGAUACCAGACAUGAGGAUCACCCAUGUACCGAGGUACCCGAAAGGAAUGUCCCUUGGCAGCUGAGCAAUGUCU [TheoBX 4 #MS2Left #Theo2 #StaticStem],12.9
4,UAAAAUAAAAGGGUGAAGGUAUAAACAGAUACCAGCCAGAUAACUGGCCCUUGGCAGCUGAAUGACAUGAGGAUCACCCAUGUCU [TheoAS 21 #OpenEnded #Ms2Late],13.1
5,GACGCAUGAGUUGUAACAGCUCAUGGGUCGCGAGGACCGGUACGGCCGCCACUCGGCUGUACAUGAGGAUCACCCAUGUCAGGGU [#1 Same State - Tryptophan A Attempt #29 (HarryS)],24.7
6,GGUUACUCUACGGCCGCCACUGAUUAAUUAUAAACCUGUACAUAAACAUGAGGAUCACCCAUGUACAGGACCGGGUAGUGUAACC [Tryptophan B 9],30.5
7,ACGUAAUGCAGAAGGAGCGUCAUUUUAAAACAUGAGGAUCACCCAUGUAAUAUUUUUGUGUGACAGGUAGGUCGCUGAAGUACGA [JR_SSArginiB_Sub007],13.9
8,AAACAACAUGAGGAUCACCCAUGUACCGAUACCAGCCAAAUAUAAGGCCCUUGGCAGCGGAGUAAAUCCGGAGGACAAUGGGUAA [Same State Theophylline A GF5],8.62
9,UGUACUAUGUGAAGGAGCGAGAAUCCUACAUGAGGAUCACCCAUGUAACAGCGAAAGCUGACUCAGGUAGGUCGCACAUAGUACU [ArgBS - First try],111
10,AAUACCGGAUCGGCCGCCACUGGUUGGCCCUGUGUACAUGAGGAUCACCCAUGUCCAUCCCAGACCAGGACCGGGAUCUUUGUGU [Ingeraza],15.6
11,AAAUAAAUCACAUGAGGAUCACCCAUGGAUACCAGGCCUGGAAACAGCCCUUGGCAGCCACAUGAGGAUCACCCAUGUGCUAAUA [MAT - Exclusion Theophlline A - Mod of Eli - D1],89.8
12,UAUCGUCAGACGGCCGCCACUAGAACAUGAGGAUCACCCAUGUACGGCCGCCCGGUAUGGGUGUCUAGGACCGGGUCUGACGAAU [(Trp1)-(Ms2)-(T)'-(M)'-(Trp2)_Design21],22.9
13,AGUGUUAUAACUGAUACCAGACUCUCAUGUUUACAUGAGGAUCACCCAUGUUAUUUCUUUGUCCCUUGGCAGCAGAAUUUACACA [JR_SSTheophyB_Sub009],142
14,GGGUAAGAUCCGGAUACCAGCGAACAUGAGGAUCACCCAUGUGAAAUAAGAUAGACUAAACGCCCUUGGCAGCCGAAAUAGCGUU [Same State Theophylline B GF 4],17.9
15,CCGACGAUGACCAAAGGUCAGGAGUGCGCACGAGGACCGGUACGGCCGCCACUCGAGGAGUGGGACAUGAGGAUCACCCAUGUAA [X-TryptA-ms2@65-1],23.9
16,AUAAUAAAGACGGCCGCCACUAUAAACAUGAGGAACAUGAGGAUCACCCAUGUAUGAGGAUCACCUAGGACCGGGUCAAAUAUUA [AstrosExyTryB#3],36
17,CGCGAGACGGCGGCCGCCACUUGUUGUUGGAAACUCGAGUUACAUGAGGAUCACCCAUGUCCUUAAAGGACCGGGCCGUAAGUAA [theeternabot_sameState_MS2_Trp_B_13],99.3
18,CAAAGUUCGUCUCUGGUCCUCUAAUCGGCUCGAGGACCGGUACGGCCGCCACUCGCCCGACAUGAGGAUCACCCAUGUCUGUAAA [Dilaanis],15.5

# Same assay, conditions: Eterna round: R107; input ligand: none
row,Sequence,apparent KD of MS2 coat protein [nM]
1,CAUAUAUAUUGAAGGAGCGUCGAAAAUGGGUAAACAUGAGGAUCACCCAUGUAAAGGGAACGACAGGUAGGUCGCAAUAUAUAUG [AstromonsSSArgB#4],181
2,GACCGGUUAUAGUGCGAUUGUCUUGUGGAAGGAGCGCAGAGGACUGCAGGUAGGUCGCCACAUGAGGAUCACCCAUGUCAGGAUA [Tirevete],23.7
